Data on one protein can be found in article doi:10.1101/2020.06.01.127704 (bioRxiv, 2020).

This series concerns the molecule itself. Briefly: cryo-EM structure.

B1: full-length human excitatory amino acid transporter 3 with two potential glycosylation sites mutated (N178T and N195T) (natural protein, UniProt P43005 1-524, looked up)
chain: MGKPARKGCEWKRFLKNNWVLLSTVAAVVLGITTGVLVREHSNLSTLEKFYFAFPGEILMRMLKLIILPLIISSMITGVAALDSNVSGKIGLRAVVYYFCTTLIAVILGIVLVVSIKPGVTQKVGEIARTGSTPEVSTVDAMLDLIRNMFPENLVQACFQQYKTKREEVKPPSDPEMTMTEESFTAVMTTAISKTKTKEYKIVGMYSDGINVLGLIVFCLVFGLVIGKMGEKGQILVDFFNALSDATMKIVQIIMCYMPLGILFLIAGKIIEVEDWEIFRKLGLYMATVLTGLAIHSIVILPLIYFIVVRKNPFRFAMGMAQALLTALMISSSSATLPVTFRCAEENNQVDKRITRFVLPVGATINMDGTALYEAVAAVFIAQLNDLDLGIGQIITISITATSASIGAAGVPQAGLVTMVIVLSAVGLPAEDVTLIIAVDWLLDRFRTMVNVLGDAFGTGIVEKLSKKELEQMDVSSEVNIVNPFALESTILDNEDSDTKKSYVNGGFAVDKSDTISFTQTSQF
By stoichiometry N is commonly meant a count of units in the complex or per binding partner. Regarding B1, the “stoichiometry N” value was found to be 3.
